These results are taken from PMC8391104 (2021).

Substitutions are numbered along the chain they refer to. Where no end group is shown, it is not given here. [ ]: non-standard residue; d: D form. pT = C[C@@H](OP(=O)(O)O)[C@H](N)C(=O)O; pS = N[C@@H](COP(=O)(O)O)C(=O)O

As usually defined, the Kd is the free concentration of one partner at which half of the binding sites on the other are occupied at equilibrium, for simple one-to-one binding. Higher therefore signals lower affinity.

Assay in all cases: ITC
In assay [1] the target is T1, Mad1CTD K614A (Homo sapiens).
T1 chain: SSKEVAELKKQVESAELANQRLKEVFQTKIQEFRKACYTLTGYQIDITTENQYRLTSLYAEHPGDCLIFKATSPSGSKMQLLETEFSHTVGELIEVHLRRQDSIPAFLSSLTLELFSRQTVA

Assay [2] addresses T2, Mad1^CTD Q627A (human, UniProt Q9Y6D9 597-718, Q627A).
T2 sequence: T1 chain with A18K, Q31A

In assay [3] the target is T3, Mad1^CTD R650A (human, UniProt Q9Y6D9 597-718, R650A).
T3 sequence: T1 chain with A18K, R54A

Assay [4] deals with T4, Mad1^CTD I643A (human, UniProt Q9Y6D9 597-718, I643A).
T4 sequence: T1 chain with A18K, I47A

B1: doubly phosphorylated Bub1^CD1 peptide (pSer459-pThr461) (peptide)
peptide: KVQP[pS]P[pT]VHTKEALGFIMNMFQAPTS
With B1, the Kd in assay [1] amounted to 2400 nM; in assay [2] it was 2400 nM; in assay [3] it was 1100 nM; in assay [4], 1400 nM.
